Measurements taken from patent publication CN116715774A (WUHAN ABCLONAL INC, dated 2023).

T1: 重组人AXL蛋白 (recombinant human AXL protein) (human, UniProt P30530 26-449, limits assumed)
T1 construct: also called 重组人AXL截短蛋白; 人受体酪氨酸激酶AXL
T1 sequence (looked up): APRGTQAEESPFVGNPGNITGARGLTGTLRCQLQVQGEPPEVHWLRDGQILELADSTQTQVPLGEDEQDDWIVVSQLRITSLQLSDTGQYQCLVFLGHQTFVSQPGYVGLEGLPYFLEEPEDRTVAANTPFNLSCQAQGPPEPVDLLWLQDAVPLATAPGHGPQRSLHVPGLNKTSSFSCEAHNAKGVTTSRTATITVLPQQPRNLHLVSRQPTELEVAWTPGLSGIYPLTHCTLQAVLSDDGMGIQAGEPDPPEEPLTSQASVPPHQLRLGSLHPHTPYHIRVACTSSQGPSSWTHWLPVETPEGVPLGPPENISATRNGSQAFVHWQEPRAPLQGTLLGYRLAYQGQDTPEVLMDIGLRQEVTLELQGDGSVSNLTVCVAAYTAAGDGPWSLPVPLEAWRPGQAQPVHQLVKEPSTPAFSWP


Target: T1, 重组人AXL蛋白 (recombinant human AXL protein)
Assay: BLI (Gator biomolecular interaction analyser), antibody against recombinant human AXL

| Binder | Kd | koff | kon |
| --- | --- | --- | --- |
| 兔单克隆抗体A (rabbit monoclonal antibody A against human AXL) (antibody, V domains shown, also called 抗人AXL兔单克隆抗体A) VH: QSVEESGGRLVTPGTPLTLTCTVSGIDLSTYAMIWVRQAPGEGLEWIGTIYTDGATAYARWAKGRFTISKTSTTVDLKMTSLTTEDTATYFCARGFGISKFVFSLWGPGTLVTVSL VL: DIVMTQTPASVEAAVGDTVTIKCQASQNIYSNLAWYQQKPGQPPKLLIYFASNLPSGVPSRFKGSGSGTEYTLTISGVQCDDAATYYCQNYYINEIVFGGGTEVVVKG | 0.555 nM | 0.000132 s⁻¹ | 237000 M⁻¹ s⁻¹ |
| 兔单克隆抗体B (rabbit monoclonal antibody B against human AXL) (antibody, V domains shown, also called 抗人AXL兔单克隆抗体B) VH: QEQLKESGGGLVQPGGSLKLSCKASGFSLSYYGVNWVRQAPGKGLEWIACIDPVFGATYYASWVNDRFTISSHNAQNTLYLQLSSLTPADTATYFCARGRYYRYGYTYATGMDIWGPGTLVTVSS VL: AIDMTQTPSSVSAAVGDTVTINCQASEDIYSFLAWYQQKPGHSPKLLIYDASKLASGVSSRFKGSGSGTQFTLTISGVQCDDAATYYCQQTYSVSNADTAFGGGTEVVVKG | 1.14 nM | 0.000387 s⁻¹ | 341000 M⁻¹ s⁻¹ |
